Laboratory results reported in patent US20160031999A1 (CSL, published 2016).

Columns and labels:
[1] = molecular target: T1, K66R mutant of soluble human IL-11Rα (SEQ ID NO: 96) (human, UniProt Q14626 23-318); test: Biacore
T1 construct: also called K44R
T1 sequence: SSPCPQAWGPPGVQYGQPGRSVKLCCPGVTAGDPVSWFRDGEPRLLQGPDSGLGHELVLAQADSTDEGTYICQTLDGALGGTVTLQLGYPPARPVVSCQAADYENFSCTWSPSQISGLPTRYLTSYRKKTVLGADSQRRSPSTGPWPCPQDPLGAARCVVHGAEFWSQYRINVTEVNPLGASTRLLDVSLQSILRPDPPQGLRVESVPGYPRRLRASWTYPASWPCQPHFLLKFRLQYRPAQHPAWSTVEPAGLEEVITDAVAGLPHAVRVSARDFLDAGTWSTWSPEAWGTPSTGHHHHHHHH
Protocol: (§1) Anti human IgG Fc specific antibody was chemically immobilized on a CM5 chip to ˜9000 RU. Antibodies were captured at about 0.3-1 μg/ml for 120 seconds on 2 spots in each flow cell. Adjacent spots consisting of only anti human IgG were used as a reference. IL-11 receptors were injected over the captured antibodies and reference spots at 40, 10, 5 and 2.5 nM in duplicate. Blank injections of buffer only were also performed in duplicate. Injection was performed for 3 minutes and dissociation monitored for a further 5 minutes.
The K66R mutation led to a decrease in KD of just over twofold when compared to WT D1/2 (SEQ ID NO: 85) for antibodies 8E2 and 8D10, indicating some involvement of this residue in antibody binding.

[2] = molecular target: T2, polypeptide of SEQ ID NO: 89 (mouse IL-11Rα 24-215 and human IL-11Rα 216-363, 8×HIS tag) (mouse and human (chimera), UniProt P70225 24-363); test: Biacore, antibody captured; N/B: no or ablated binding
T2 chain: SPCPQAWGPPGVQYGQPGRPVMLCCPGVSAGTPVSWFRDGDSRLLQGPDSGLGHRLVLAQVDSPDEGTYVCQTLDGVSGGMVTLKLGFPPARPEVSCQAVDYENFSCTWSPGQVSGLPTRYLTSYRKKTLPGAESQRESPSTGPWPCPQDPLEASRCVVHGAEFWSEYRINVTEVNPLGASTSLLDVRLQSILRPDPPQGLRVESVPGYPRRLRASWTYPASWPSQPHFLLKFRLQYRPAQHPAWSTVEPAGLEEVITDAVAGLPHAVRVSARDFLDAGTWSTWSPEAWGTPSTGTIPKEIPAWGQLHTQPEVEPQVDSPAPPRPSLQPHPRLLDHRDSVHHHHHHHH
Protocol: Various soluble forms of IL-11R comprising regions of hIL-11R and mIL-11R were produced and comprise sequences as set forth in SEQ ID NOs: 3 and 86-90 and the binding of antibodies 8E2, 8D10 and 8E4 to those polypeptides was determined using Western blotting or Biacore analysis.
For Biacore analysis, anti-human was IgG immobilized on the sensor surface at ˜10,000-12,000 RU and each antibody was captured at between 0.2 μg/ml and 0.5 μg/ml every cycle for 120 seconds. IL-11 receptors were injected over captured antibodies at varying concentrations, ranging from 1 μM down to 2.5 nM, including injections of buffer blanks. Association was monitored for 3-5 minutes, dissociation was monitored for 3-10 minutes. Approximate affinities were determined by fitting binding curves of each interaction to a 1:1 Kinetic Model.

[3] = molecular target: T1, K66R mutant of soluble human IL-11Rα …; test: Biacore, antibody captured on anti-human IgG Fc, receptor injected; mean ± SE, N = 4
Protocol: (§2) Various point mutants of soluble forms of IL-11R were produced in which amino acids from mIL-11 were introduced into a soluble form of hIL-11 (SEQ ID NO: 85) (see Table 5 for positions of mutations relative to SEQ ID NO: 1 and for reference to the SEQ ID NO: of each polypeptide) and the binding of antibodies to those polypeptides or to polypeptides of SEQ ID NO: 3 or SEQ ID NO: 85 was determined using Biacore analysis or FACS.
as §1

[4] = molecular target: T3, P65S mutant of soluble human IL-11Rα (SEQ ID NO: 97) (human, UniProt Q14626 23-318); test: as above
T3 sequence: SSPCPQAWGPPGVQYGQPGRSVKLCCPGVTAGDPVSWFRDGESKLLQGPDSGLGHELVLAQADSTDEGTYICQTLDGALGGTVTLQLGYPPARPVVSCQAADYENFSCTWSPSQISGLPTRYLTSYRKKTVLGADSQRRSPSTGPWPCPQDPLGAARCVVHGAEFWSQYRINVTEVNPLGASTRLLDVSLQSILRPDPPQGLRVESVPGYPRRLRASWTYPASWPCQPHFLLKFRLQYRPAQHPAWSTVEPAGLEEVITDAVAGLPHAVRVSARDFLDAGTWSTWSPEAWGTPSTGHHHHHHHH
Protocol: as §2, §1

[5] = molecular target: T4, L101S mutant of soluble human IL-11Rα (SEQ ID NO: 98) (human, UniProt Q14626 23-318); test: as above
T4 sequence: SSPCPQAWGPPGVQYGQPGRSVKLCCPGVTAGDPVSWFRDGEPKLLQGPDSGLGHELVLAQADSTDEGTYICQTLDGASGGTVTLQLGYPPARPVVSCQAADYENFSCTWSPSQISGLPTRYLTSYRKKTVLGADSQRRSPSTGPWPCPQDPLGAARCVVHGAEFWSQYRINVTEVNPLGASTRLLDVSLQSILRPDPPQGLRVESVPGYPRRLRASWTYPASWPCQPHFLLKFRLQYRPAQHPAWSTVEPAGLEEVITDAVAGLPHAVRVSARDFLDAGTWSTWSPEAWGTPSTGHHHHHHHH
Protocol: as §2, §1

[6] = molecular target: T5, A178S mutant of soluble human IL-11Rα (SEQ ID NO: 99) (human, UniProt Q14626 23-318); test: as above
T5 sequence: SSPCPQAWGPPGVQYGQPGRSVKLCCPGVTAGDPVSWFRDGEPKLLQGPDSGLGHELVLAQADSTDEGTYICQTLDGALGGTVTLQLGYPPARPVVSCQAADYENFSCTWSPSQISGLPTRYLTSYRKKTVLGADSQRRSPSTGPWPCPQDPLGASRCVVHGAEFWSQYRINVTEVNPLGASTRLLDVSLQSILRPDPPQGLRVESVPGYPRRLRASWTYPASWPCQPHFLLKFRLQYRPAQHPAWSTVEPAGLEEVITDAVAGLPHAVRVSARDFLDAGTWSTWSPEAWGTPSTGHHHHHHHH
Protocol: as §2, §1

Binder | fold change in KD compared to WT D1/2 (SEQ ID NO: 85) [1] [fold] | binding result [2] | Kd [3] [nM] | Kd [4] [nM] | Kd [5] [nM] | Kd [6] [nM]
antibody 8D10 (antibody, human IgG4 S228P, kappa, V domains shown) VH: EVQLLESGGGLVQPGGSLRLSCAASGFTFSRYMMGWVRQAPGKGLEWVSSIVPSGGITIYADSVKGRFTISRDNSKNTLYLQMNSLRAEDTAVYYCARDHMGIVATDWGQGTLVTVSS VL: DIQMTQSPSSLSASVGDRVTITCQASQDITNYLNWYLHKPGKAPKLLIYDASNLQTGVPSRFSGSGSGTDFTFTITSLQPEDFGTYYCQQYDTLHPSFGPGTTVDIKR | > 2 | no binding | 1.3 | 0.67 | 0.7 | 0.6
antibody 8E4 (antibody, human IgG4 S228P, lambda, V domains shown) VH: EVQLLESGGGLVQPGGSLRLSCAASGFTFSWYFMGWVRQAPGKGLEWVSYIYPSGGSTGYADSVKGRFTISRDNSKNTLYLQMHSLRAEDTAVYYCARDEGYCSSTSCYFDAFDIWGQGTMVTVSS VL: QSALTQPPSASGSPGQSVAISCTGTSSDVGGYNFVSWYQQHPGKAPKLLIYEVTKRPSGVPDRFSGSKAGNTASLTVSGLQAEDEADYYCSSYGGSNNAGVFGTGTKVTVLG |  |  | 5.6 | 2.71 | 2.98 | 2.63
